T1: TBK1 (Homo sapiens, UniProt Q9UHD2)
T1 sequence (Q9UHD2 1-729): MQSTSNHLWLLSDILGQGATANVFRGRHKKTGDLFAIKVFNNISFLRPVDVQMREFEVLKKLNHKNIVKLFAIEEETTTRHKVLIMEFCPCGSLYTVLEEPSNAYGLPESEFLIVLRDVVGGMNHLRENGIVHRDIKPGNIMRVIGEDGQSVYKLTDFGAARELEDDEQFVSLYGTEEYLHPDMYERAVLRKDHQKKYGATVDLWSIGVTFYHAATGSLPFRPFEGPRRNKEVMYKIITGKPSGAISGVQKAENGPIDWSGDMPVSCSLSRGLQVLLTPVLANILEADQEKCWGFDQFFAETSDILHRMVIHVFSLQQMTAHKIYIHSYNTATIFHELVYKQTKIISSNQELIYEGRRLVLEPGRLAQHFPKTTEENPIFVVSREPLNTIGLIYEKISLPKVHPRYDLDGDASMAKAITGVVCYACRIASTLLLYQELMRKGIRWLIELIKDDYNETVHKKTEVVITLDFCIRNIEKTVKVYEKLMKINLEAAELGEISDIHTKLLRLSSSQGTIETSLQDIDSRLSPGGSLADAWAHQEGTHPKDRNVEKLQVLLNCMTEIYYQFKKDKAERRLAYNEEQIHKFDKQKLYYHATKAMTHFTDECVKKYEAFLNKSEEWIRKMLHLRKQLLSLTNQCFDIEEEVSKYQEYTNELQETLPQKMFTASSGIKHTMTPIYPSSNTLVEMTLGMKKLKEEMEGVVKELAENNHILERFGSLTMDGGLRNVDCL


Assays:
TBK1 = target: T1, TBK1; format: binding
p47phox = format: binding

Molecule | domain of TBK1 required for binding (TBK1) | domain of p47phox required for binding (p47phox)
MPT64: secretory immunodominant antigen of MTB, located in the RD2 region (protein) APKTYCEELKGTDTGQACQIQMSDPAYNINISLPSYYPDQKSLENYIAQTRDKFLSAATSSTPREAPYELNITSATYQSAIPPRGTQAVVLKVYQNAGGTHPTTTYKAFDWDQAYRKPITYDTLWQADTDPLPVVFPIVQGELSKQTGQQVSIAPNAGLDPVNYQNFAVTNDGVIFFFNPGELLPEAAGPTQVLVPRSAIDSMLA | The kinase domain (1–301) in TBK1 and HK2 domain in HK2 were found to be essential for their interaction with MPT64 | –
MPT63: secretory immunodominant antigen of MTB (protein) AYPITGKLGSELTMTDTVGQVVLGWKVSDLKSSTAVIPGYPVAGQVWEATATVNAIRGSVTPAVSQFNARTADGINYRVLWQAAGPDTISGATIPQGEQSTGKIYFDVTGPSPTIVAMNNGMEDLLIWEP | the kinase domain in TBK1 was essential to bind MPT63 | the PX domain in p47phox was important for the interaction with MPT63

Source: paper PMC8152475 (Biomedicines, 2021)
